± gives the standard deviation of the averaged measurements.
Experiments:
[1] = system: MCF7; test: percentage of EdU-negative (G0-arrested) nuclei per well, 72 h; higher = more G0 arrest; details: reference: sequence is the full UniProt precursor, the tested protein was the secreted form or ectodomain
[2] = system: hTERT-HMEC; test: as above; details: reference: sequence is the full UniProt precursor, the tested protein was the secreted form or ectodomain
[3] = protein concentration 0.0225 µM
[4] = protein concentration 0.01025 µM
[5] = protein concentration 0.1025 µM
[6] = protein concentration 0.0357143 µM
[7] = protein concentration 0.357143 µM
[8] = protein concentration 0.01525 µM
[9] = protein concentration 0.1525 µM
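Further: secreted proteins added to cultured cells, EdU pulse at the end, nuclei found by Hoechst imaging, EdU status from nuclear versus surrounding ring intensity ratio, PBS as neutral control.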

For “MHLIDYLLLLLVGLLALSHGQLHVEHDGESCSNSSHQQILETGEGSPSLKIAPANADFAFRFYYLIASETPGKNIFFSPLSISAAYAMLSLGACSHSRSQILEGLGFNLTELSESDVHRGFQHLLHTLNLPGHGLETRVGSALFLSHNLKFLAKFLNDTMAVYEAKLFHTNFYDTVGTIQLINDHVKKETRGKIVDLVSELKKDVLMVLVNYIYFKALWEKPFISSRTTPKDFYVDENTTVRVPMMLQDQEHHWYLHDRYLPCSVLRMDYKGDATVFFILPNQGKMREIEEVLTPEMLMRWNNLLRKRNFYKKLELHLPKFSISGSYVLDQILPRLGFTDLFSKWADLSGITKQQKLEASKSFHKATLDVDEAGTEAAAATSFAIKFFSAQTNRHILRFNRPFLVVIFSTSTQSVLFLGKVVDPTKP”, the “percentage of EdU-negative” value ([1]; protein concentration 0.022 µM) was 25 ± 1.3%, the “percentage of EdU-negative” value ([1]; protein concentration 0.22 µM) was 28.9 ± 0.99% and the “percentage of EdU-negative” value ([2]; protein concentration 0.022 µM) was 4.571 ± 0.028%. For the same sequence, the “percentage of EdU-negative” value ([2]; protein concentration 0.22 µM) was 4.09 ± 0.62%.

With “MEYQILKMSLCLFILLFLTPGILCICPLQCICTERHRHVDCSGRNLSTLPSGLQENIIHLNLSYNHFTDLHNQLTQYTNLRTLDISNNRLESLPAHLPRSLWNMSAANNNIKLLDKSDTAYQWNLKYLDVSKNMLEKVVLIKNTLRSLEVLNLSSNKLWTVPTNMPSKLHIVDLSNNSLTQILPGTLINLTNLTHLYLHNNKFTFIPDQSFDQLFQLQEITLYNNRWSCDHKQNITYLLKWMMETKAHVIGTPCSTQISSLKEHNMYPTPSGFTSSLFTVSGMQTVDTINSLSVVTQPKVTKIPKQYRTKETTFGATLSKDTTFTSTDKAFVPYPEDTSTETINSHEAAAATLTIHLQDGMVTNTSLTSSTKSSPTPMTLSITSGMPNNFSEMPQQSTTLNLWREETTTNVKTPLPSVANAWKVNASFLLLLNVVVMLAV” the “percentage of EdU-negative” value [1, 3] was 24.1 ± 0.32%, the “percentage of EdU-negative” value ([1]; protein concentration 0.225 µM) was 27.6 ± 1.6% and the “percentage of EdU-negative” value [2, 3] was 5.851 ± 0.022%. For the same sequence, the “percentage of EdU-negative” value ([2]; protein concentration 0.225 µM) was 10.4 ± 1.5%.

With “MTVFLSFAFLAAILTHIGCSNQRRSPENSGRRYNRIQHGQCAYTFILPEHDGNCRESTTDQYNTNALQRDAPHVEPDFSSQKLQHLEHVMENYTQWLQKLENYIVENMKSEMAQIQQNAVQNHTATMLEIGTSLLSQTAEQTRKLTDVETQVLNQTSRLEIQLLENSLSTYKLEKQLLQQTNEILKIHEKNSLLEHKILEMEGKHKEELDTLKEEKENLQGLVTRQTYIIQELEKQLNRATTNNSVLQKQQLELMDTVHNLVNLCTKEGVLLKGGKREEEKPFRDCADVYQAGFNKSGIYTIYINNMPEPKKVFCNMDVNGGGWTVIQHREDGSLDFQRGWKEYKMGFGNPSGEYWLGNEFIFAITSQRQYMLRIELMDWEGNRAYSQYDRFHIGNEKQNYRLYLKGHTGTAGKQSSLILHGADFSTKDADNDNCMCKCALMLTGGWWFDACGPSNLNGMFYTAGQNHGKLNGIKWHYFKGPSYSLRSTTMMIRPLDF” the “percentage of EdU-negative” value [1, 4] was 25.2 ± 0.66%, the “percentage of EdU-negative” value [1, 5] was 26.4 ± 0.81% and the “percentage of EdU-negative” value [2, 4] was 4.915 ± 0.017%. The “percentage of EdU-negative” value [2, 5] was 8.6 ± 2%.

For “MKVSVAALSCLMLVAVLGSQAQFTNDAETELMMSKLPLENPVVLNSFHFAADCCTSYISQSIPCSLMKSYFETSSECSKPGVIFLTKKGRQVCAKPSGPGVQDCMKKLKPYSI”, the “percentage of EdU-negative” value [1, 6] was 24.9 ± 0.52%, the “percentage of EdU-negative” value [1, 7] was 25.2 ± 0.81% and the “percentage of EdU-negative” value [2, 6] was 4.77 ± 0.69%. For the same sequence, the “percentage of EdU-negative” value [2, 7] was 4.52 ± 1.2%.

With “MEACCLLQLPQRLLLLGAAALTATALETADLAELCGQTWQGDGLLLRSHAASRRFYFVAPDTDCGLWVQAAAPGDRIRFQFRFFLVYSLTPAPPALNTSSPAPADPCAPGSYLQFYEGPPGAPRPLGSPLCGLNIPVPVASSGPFLGLRLVTRGRQPRVDFVGEVTSFRLGPCGAYFRCQNGRCIPSSLVCDPWGMDNCGDGSDQGSWSPADCRGPSPVPSQTGSTDAHTSRSLTPSPALGSAGSLWIAAERSSPAGRDPTRQDAALEGSTE [Q5SZI1]” the “percentage of EdU-negative” value [1, 3] was 24.6 ± 1.8%, the “percentage of EdU-negative” value ([1]; protein concentration 0.225 µM) was 25.3 ± 0.88% and the “percentage of EdU-negative” value [2, 3] was 5.13 ± 0.83%. For the same sequence, the “percentage of EdU-negative” value ([2]; protein concentration 0.225 µM) was 5.979 ± 0.048%.

In the case of “MARYMLLLLLAVWVLTGELWPGAEARAAPYGVRLCGREFIRAVIFTCGGSRWRRSDILAHEAMGDTFPDADADEDSLAGELDEAMGSSEWLALTKSPQAFYRGRPSWQGTPGVLRGSRDVLAGLSSSCCKWGCSKSEISSLC [Q8WXF3]”, the “percentage of EdU-negative” value [1, 3] is reported as 26.3 ± 1.9%, the “percentage of EdU-negative” value ([1]; protein concentration 0.225 µM) is reported as 26.3 ± 0.94% and the “percentage of EdU-negative” value [2, 3] is reported as 4.41 ± 0.39%. For the same sequence, the “percentage of EdU-negative” value ([2]; protein concentration 0.225 µM) was 5.85 ± 0.42%.

With “MPSSTAMAVGALSSSLLVTCCLMVALCSPSIPLEKLAQAPEQPGQEKREHASRDGPGRVNELGRPARDEGGSGRDWKSKSGRGLAGREPWSKLKQAWVSQGGGAKAGDLQVRPRGDTPQAEALAAAAQDAIGPELAPTPEPPEEYVYPDYRGKGCVDESGFVYAIGEKFAPGPSACPCLCTEEGPLCAQPECPRLHPRCIHVDTSQCCPQCKERKNYCEFRGKTYQTLEEFVVSPCERCRCEANGEVLCTVSACPQTECVDPVYEPDQCCPICKNGPNCFAETAVIPAGREVKTDECTICHCTYEEGTWRIERQAMCTRHECRQM [Q2TAL6]” the “percentage of EdU-negative” value [1, 8] was 22.8 ± 3.1%, the “percentage of EdU-negative” value [1, 9] was 25.17 ± 0.21% and the “percentage of EdU-negative” value [2, 8] was 5.49 ± 1.1%. For the same sequence, the “percentage of EdU-negative” value [2, 9] was 7.17 ± 0.096%.

— the supplement of paper PMC11316812
